Assay results: paper PMC7160566

B1: LexA_(DBDwt)-SehB-WT [Salmonella enterica serotype Typhimurium] / itself (parent)
chain: MRTHRQMDATSAKKIVDTFSDAVKTVPLMGEDRNDNEYRRALALVEFLVDHDDLENPLFELLCARISEYEKHAPEFKALNQHLEKTPPGVSVLRTLMDQYGLKAADLANELGSKSNVSNILNGRRALTVNHIKALTQRFKLPADAFIE
B2: LexA_(DBDwt)-SehB-WT [Salmonella enterica serotype Typhimurium] / LexA_(DBDmut)-SehA [Salmonella enterica serotype Typhimurium] (parent)
chain 1: B1 chain
chain 2: MHVISRKPFNEAMLMYPNHELALTELLNVLEKKTFTQPEEMKRYIPSLDNFKYRDKWWVIDVSGNSLRLISYIDFRLHKIFVKHIVSHAEYDKLTAYYRGNKE

Variants of: B1
Assay: LexA-based genetic system for homodimerization (sulA-lacZ reporter, E. coli SU101)
Conditions: with itself; LB broth at 37°C to an OD600 nm of 1.0; 1 mM IPTG; parent: 130; read off a plot

| Variant | response |
| --- | --- |
| chain 1 F146A | 110 U/mg |
| chain 1 S113A | 110 U/mg |
| chain 1 L48A | 770 U/mg |
| chain 1 I66A | 680 U/mg |
| chain 1 L58A | 650 U/mg |
| chain 1 L127A | 170 U/mg |
| chain 1 L135A | 130 U/mg |
| chain 1 Y38A | 600 U/mg |

Variants of: B2
Assay: LexA-based genetic system for heterodimerization (sulA-lacZ reporter, E. coli SU202)
Conditions: with LexA_(DBDmut)-SehA [Salmonella enterica serotype Typhimurium]; LB broth at 37°C to an OD600 nm of 1.0; 1 mM IPTG; parent: 750; read off a plot

| Variant | response |
| --- | --- |
| chain 1 L135A | 720 U/mg |
| chain 1 I66A | 630 U/mg |
| chain 1 S113A | 760 U/mg |
| chain 1 L58A | 820 U/mg |
| chain 1 L48A | 940 U/mg |
| chain 1 F146A | 780 U/mg |
| chain 1 Y38A | 1100 U/mg |
| chain 1 L127A | 770 U/mg |
